The results in this text go back to PMC4447949, “Structures of the Ets Protein DNA-binding Domains of Transcription Factors Etv1, Etv4, Etv5, and Fev” (The Journal of Biological Chemistry, 2015).

Series [1] deals with the molecule itself. Nature of the series: SEC; protein expressed in Rosetta-gami 2 E. coli and purified under nonreducing conditions (no TCEP); Superdex S75 or 200, 20 mM HEPES pH 7.5, 500 mM NaCl, 5% glycerol; dimer checked by SDS-PAGE with or without DTT and by mass spectrometry. On the technique in general: Size exclusion chromatography separates by hydrodynamic size, large species first.

The target in series [2] is Etv1 Y329S-P427S (human, UniProt P50549 326-429, Y329S;P427S). Put plainly: X-ray crystallography; 2.9 A; EMSA: 50 mM Tris-HCl pH 7.5, 50 mM NaCl, 2 mM MgCl2, 0.01% Tween 20, 5% glycerol, 1 h at room temperature; proteins reduced with 10 mM TCEP unless stated; 10% native PAGE. The following applies: protein: recombinant; tags: N-terminal His6 removed by TEV (leaves SM); blunt.

In series [3] the target is T1, Fev Ets domain (human, UniProt Q99581 42-141).
T1 sequence: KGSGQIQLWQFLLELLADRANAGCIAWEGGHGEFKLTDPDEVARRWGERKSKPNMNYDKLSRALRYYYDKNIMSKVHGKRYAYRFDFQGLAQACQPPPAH
Put plainly: X-ray crystallography; text cites 2YPR for the complex, but Fig. 1 uses 2YPR as Fev and Fig. 7 gives 3ZP5 as Fev-dsDNA; EMSA: 50 mM Tris-HCl pH 7.5, 50 mM NaCl, 2 mM MgCl2, 0.01% Tween 20, 5% glycerol, 1 h at room temperature; proteins reduced with 10 mM TCEP unless stated; 10% native PAGE. The following applies: protein: recombinant; tags: N-terminal His6 removed by TEV (leaves SM); chain copies: 2; blunt. In general terms: Mobility shift assays separate free from complexed probe on a gel.

Series [4] deals with the molecule itself. Nature of the series: crystal structure; DNA-free crystals; dimer seen between adjacent molecules in the crystal, with an intermolecular disulfide bond; protein purified with TCEP.
Series [5] has as its target Etv5 Ets domain (human, UniProt P41161 365-462). Put plainly: X-ray crystallography; 1.95 A; Ca2+ bound near alpha4; EMSA: 50 mM Tris-HCl pH 7.5, 50 mM NaCl, 2 mM MgCl2, 0.01% Tween 20, 5% glycerol, 1 h at room temperature; proteins reduced with 10 mM TCEP unless stated; 10% native PAGE. Conditions: protein: recombinant; tags: N-terminal His6 removed by TEV (leaves SM); 3' overhang 1 nt on each strand.

Series [6] deals with Etv4 Ets domain (human, UniProt P43268 338-470). Nature of the series: X-ray crystallography; 2.8 A; 8 complexes per asymmetric unit; EMSA: 50 mM Tris-HCl pH 7.5, 50 mM NaCl, 2 mM MgCl2, 0.01% Tween 20, 5% glycerol, 1 h at room temperature; proteins reduced with 10 mM TCEP unless stated; 10% native PAGE. The following applies: protein: recombinant; tags: N-terminal His6 removed by TEV (leaves SM); 3' overhang 1 nt on each strand.

Changes are numbered by the printed parent chain. Names and notes keep the numbering of the source.

B1: Etv5 Ets domain (amino acids 365-462) (domain or fragment, human, UniProt P41161 365-462, looked up)
chain: RGSLQLWQFLVTLLDDPANAHFIAWTGRGMEFKLIEPEEVARRWGIQKNRPAMNYDKLSRSLRYYYEKGIMQKVAGERYVYKFVCDPDALFSMAFPDN
notes: Etv5 (ERM), Ets domain construct, amino acids 365-462; TEV cleavage leaves SM before the insert; The limits are those told for the crystallisation construct; also called ERM; Etv5 WT; source: E. coli BL21 (DE3) Rosetta-R3, purified with TCEP (Ni-IDA, TEV cleavage, SEC); E. coli Rosetta-gami 2, purified without TCEP; not shown: His6, N-terminal, cleaved
Turning to B1, the stoichiometry N (usually a count of units in the complex or per binding partner) in series [1] was found to be 2.

B2: 10-bp crystallization duplex (dsDNA)
DNA 1: ACCGGAAGTG
DNA 2: CACTTCCGGT
As for B2, the binding result in series [2] and in series [3] was “binds” in each case.

B3: Fev Ets domain (amino acids 42-141) (domain or fragment, human, UniProt Q99581 42-141, looked up)
chain: T1 sequence
notes: Fev (Fifth Ewing Variant, PET-1), Ets domain construct, amino acids 42-141; TEV cleavage leaves SM before the insert; also called Fifth Ewing Variant; PET-1; source: E. coli BL21 (DE3) Rosetta-R3, purified (Ni-IDA, TEV cleavage, SEC); not shown: His6, N-terminal, cleaved
With B3, in series [4], the binding result is listed as “binds”.

B4: Etv4 Ets domain (amino acids 338-470) (domain or fragment, human, UniProt P43268 338-470, looked up)
chain: RGALQLWQFLVALLDDPTNAHFIAWTGRGMEFKLIEPEEVARLWGIQKNRPAMNYDKLSRSLRYYYEKGIMQKVAGERYVYKFVCEPEALFSLAFPDNQRPALKAEFDRPVSEEDTVPLSHLDESPAYLPELA
notes: Etv4 (PEA3), Ets domain construct, amino acids 338-470; TEV cleavage leaves SM before the insert; The limits are those told for the crystallised construct; also called PEA3; Etv4 WT; source: E. coli BL21 (DE3) Rosetta-R3, purified with TCEP (Ni-IDA, TEV cleavage, SEC); E. coli Rosetta-gami 2, purified without TCEP; not shown: His6, N-terminal, cleaved
Turning to B4, the “stoichiometry N” value in series [1] turned out to be 2.

B5: Etv1^Y329S-P427S Ets domain (amino acids 326-429) (domain or fragment, human, UniProt P50549 326-429, looked up)
chain: GPTSQRRGSLQLWQFLVALLDDPSNSHFIAWTGRGMEFKLIEPEEVARRWGIQKNRPAMNYDKLSRSLRYYYEKGIMQKVAGERYVYKFVCDPEALFSMAFSDN
notes: Etv1 (Ets translocation variant 1, ER81), Ets domain construct, amino acids 326-429, with two primer-incorporated mutations; A selenomethionine form was used for phasing of the DNA complex; also called PCR mutant Ets domain; ER81; source: E. coli BL21 (DE3) Rosetta-R3, purified (Ni-IDA, TEV cleavage, SEC); not shown: His6, N-terminal, cleaved
Consider B5, for which, in series [4], the binding result is given as “binds”.

B6: Etv1 wild-type Ets domain (amino acids 326-429) (domain or fragment, human, UniProt P50549 326-429, looked up)
chain: B5 chain with S4Y, S102P
notes: Same limits as the crystallised Y329S-P427S construct (PDB 4AVP, 4BNC); TEV cleavage leaves SM before the insert; From Rosetta-gami 2 under nonreducing conditions it is a disulfide-linked dimer; also called WT; WT dimer; source: E. coli BL21 (DE3) Rosetta-R3, purified with TCEP (Ni-IDA, TEV cleavage, SEC); E. coli Rosetta-gami 2, purified without TCEP; not shown: His6, N-terminal, cleaved
Take B6: the “stoichiometry N” value in series [1] is 2.

B7: 9-bp crystallization duplex with overhangs (dsDNA)
DNA 1: ACCGGAAGTG
DNA 2: ACTTCCGGTC
On to B7, for which the binding result in series [5] and in series [6] was “binds” each time.
